The values below come from US20230088483A1, “USE OF R[…] GENE DERIVED PROTEIN OR FRAGMENT THEREOF” (priority 2020, published 2023).

The test system of the assay is SARS-CoV-2 (C-Tan-nCoV Wuhan strain 01). It counts as cell-based. To be noted: Vero cells; for Ct value: 100 PFU/well, medicine added 2 h after infection, supernatant at 24 h, qRT-PCR target ORF1a/b, control group Ct 22.6.

Where two headings read alike, the source gives them in different places.

B1: Novaferon: Recombinant cytokine gene derived protein, an analog of interferon (SEQ ID NO: 1); applicant's product, Genova Biotech (Qingdao) Co., Ltd. (protein)
chain: CNLSQTHSLGSKRTLMLLAQMGKISLFSCLKDRHDFEFPQEEFDGNQFQKAQAISVLHELIQQTFNLFSTKESSAAWDEGLLDKFRTELYRQLNDLEACMMQEVGVEETPLMNADSILAVKKYFQRITLYLMEKKYSPCAWEVVRVEIMRSLSFSTNLQKRLRGKD
modifications: Amino Acid Sequences Synthesized by Chemical Means
As to B1, the Ct value is, setting by setting: (Novaferon 0.001 ng/mL) 22.645; (Novaferon 0.01 ng/mL) 22.685; (Novaferon 0.1 ng/mL) 22.815; (Novaferon 1 ng/mL) 23.665; (Novaferon 10 ng/mL) 29.025; (Novaferon 100 ng/mL) 27.625. The “cytopathic effect (CPE)” value is listed as “no obvious cytopathic effect” (medicine concentration 10 ng/mL) and “no obvious cytopathic effect” (medicine concentration 100 ng/mL). Moreover, the “half maximal inhibitory concentration IC50 for the SARS-CoV-2 in vitro” value (preliminary calculation from inhibition rates based on Ct values) is reported as 1.02 ng/mL.
